Laboratory results reported in paper PMC9846250.

What was measured:
[1] = dynamic light scattering; 25°C, 90°, purified paramyosin in PBS pH 7.5 with 0.15, 0.5 and 1 M KCl; two populations by hydrodynamic radius (dimer, aggregates); number fractions calculated from the scattered intensities; conditions: other: dynamic light scattering
[2] = molecular target: paramyosin from giant squid (Dosidicus gigas) (giant squid (Dosidicus gigas)); experiment: as above
[3] = molecular target: paramyosin from giant squid (Dosidicus gigas) (giant squid (Dosidicus gigas)); experiment: static light scattering; Debye plot, 25°C, 90°, paramyosin 0.01-0.1 mg/ml in PBS pH 7.5 with 0.15, 0.5 and 1.0 M KCl; apparent Mw; monomers to dimer

Substance	dimers per aggregate [1]	percent of molecules in dimeric form [2] [%]	stoichiometry N [3]
paramyosin from giant squid (Dosidicus gigas)	there are ca. 5 dimer paramyosin particles inside an aggregate	–	–
paramyosin from giant squid (Dosidicus gigas) (natural protein)	–	> 99	2
